Test results from publication PMC4818849, “In vitroassembly of the bacterial actin protein MamK from ‘CandidatusMagnetobacterium casensis’ in the phylumNitrospirae” (Protein & Cell, 2016).

Substrate: Nc1ncnc2c1ncn2[C@@H]1O[C@H](COP(=O)(O)OP(=O)(O)OP(=O)(O)O)[C@@H](O)[C@H]1O
Assay: ATPase, malachite green phosphate release, Lineweaver-Burk plot
Type: biochemical, Magnetobacterium casense (SeqCode)
Conditions: assay buffer of b46: 20 mmol/L Tris-HCl pH 8.0, 0.2 mmol/L MgCl2, 50 mmol/L NaCl, 37°C, kinetic details in supplement
Description: ATPase, malachite green phosphate release, Lineweaver-Burk plot on MamK from 'Candidatus Magnetobacterium casensis' (Mcas MamK) | we calculated the Vmax and Km of the ATPase activity as […]

B1: MamK from 'Candidatus Magnetobacterium casensis' (Mcas MamK) (Magnetobacterium casense (SeqCode)) (protein)
chain: MTKTKILNIGIDLGTSRSVIACDNGVRTFVPSYVGFPKDAVSRKMFGRDVIFGDEAIKHRMALNLFRPFDKGMIKYADTNPESKEYKNALYVAKALLQHLVDLAKEGDQERGVDYIVRGVIGAPALASRKNRKALLDVARGILDGVMISSEPFTVAYGLNLLSNALIIDIGAGTVDLCRMHGTIPTDEDQITTFKAGDYVDQAFYDLITKKYKDVNLTINMVKKFKEENAFISSQGERVFIEVPVKGKPEKRDITDELRQACRMIVPDIVEGIRKLIAEYDPEFQNNLKQNVVLAGGGSQIIGLRKEIEDYMIETLGYGKVIKIEEPLFAGANGAMMLCKDMPDEYWDEVSKR
notes: full-length mamK from Mcas genomic DNA in pET28a and pET22b, E. coli C43 (DE3); His tag removed leaving three N-terminal residues (tagged forms also examined); filament-forming
  Km: 71.02 µmol/L
  kcat: 3.8 min⁻¹
